Common to all, as to conditions: both partners purified
Test [1] has as its target T1, biotinylated multidomain FZD3 (C-terminally truncated, in detergent) (human, UniProt Q9NPG1, biotin (in vivo biotinylation of the Avi tag)).
T1 construct: human Frizzled-3 (FZD3), UniProt Q9NPG1; C-terminally truncated construct (CRD, linker and transmembrane domain); residues 26-517 are stated for the multidomain production construct, not expressly for the Avi-tagged one; The results call it 'full-length FZD3'; the methods say the biotinylated transmembrane constructs were C-terminally truncated; Functional assays in cells used wild type FZD3 …
In words: BLI; Octet Red 96e; biotinylated multidomain FZD3 or FZD6 in detergent immobilised, nanobody or DEP in solution; 10 mM HEPES pH 7.5, 150 mM NaCl, 0.02% Tween 20, 0.005% GDN; 1:1 binding model.

The target of test [2] is T2, biotinylated FZD6 (C-terminally truncated transmembrane construct, in detergent) (Homo sapiens, UniProt O60353, biotin (in vivo biotinylation of the Avi tag)).
T2 construct: Frizzled-6 (FZD6), C-terminally truncated transmembrane construct; the methods say C-terminal truncated, without limits; also called full length FZD6; source: HEK293T with biotin ligase, transfected, biotinylated in vivo, in detergent; not shown: Avi3, C-terminal, kept
T2 sequence (O60353 19-706): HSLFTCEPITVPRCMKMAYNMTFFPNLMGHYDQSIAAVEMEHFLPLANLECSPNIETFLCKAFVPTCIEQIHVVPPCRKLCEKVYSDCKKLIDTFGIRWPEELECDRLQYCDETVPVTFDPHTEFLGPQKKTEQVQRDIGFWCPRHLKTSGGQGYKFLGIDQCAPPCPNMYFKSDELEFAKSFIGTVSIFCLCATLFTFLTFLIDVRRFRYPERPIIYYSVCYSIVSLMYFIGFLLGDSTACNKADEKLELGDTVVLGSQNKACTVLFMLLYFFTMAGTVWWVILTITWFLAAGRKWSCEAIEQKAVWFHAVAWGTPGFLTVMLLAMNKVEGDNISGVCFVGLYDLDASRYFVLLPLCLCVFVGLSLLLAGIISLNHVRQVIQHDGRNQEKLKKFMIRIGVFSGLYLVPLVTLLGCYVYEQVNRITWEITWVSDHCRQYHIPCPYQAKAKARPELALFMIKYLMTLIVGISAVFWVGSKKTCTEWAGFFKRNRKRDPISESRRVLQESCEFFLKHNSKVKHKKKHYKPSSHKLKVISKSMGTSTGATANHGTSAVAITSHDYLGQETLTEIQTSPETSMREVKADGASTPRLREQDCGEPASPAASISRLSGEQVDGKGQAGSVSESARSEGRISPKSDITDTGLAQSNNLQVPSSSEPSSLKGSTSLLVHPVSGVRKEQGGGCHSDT
The test is described as above.

Test [3] concerns the target T3, biotinylated FZD1 cysteine-rich domain (CRD) (Homo sapiens, UniProt Q9UP38, biotin (in vivo biotinylation of the Avi tag)).
T3 construct: human Frizzled-1 (FZD1) cysteine-rich domain; One of 'all 10 human Frizzled CRDs'; also called FZD1 CRD; source: HEK293T constitutively expressing ER-localised biotin ligase, transfected, biotinylated in vivo; not shown: Avi3, C-terminal, kept
In words: BLI; BLItz System; initial qualitative test of the 10 biotinylated human FZD CRDs binding to Nb8. (BLI is a label-free optical method that tracks binding on a fibre tip over time.)

Test [4] concerns the target T4, biotinylated FZD2 cysteine-rich domain (CRD) (Homo sapiens, UniProt Q14332, biotin (in vivo biotinylation of the Avi tag)).
T4 construct: human Frizzled-2 (FZD2) cysteine-rich domain; One of 'all 10 human Frizzled CRDs'; also called FZD2 CRD; source: HEK293T constitutively expressing ER-localised biotin ligase, transfected, biotinylated in vivo; not shown: Avi3, C-terminal, kept
The description is as above.

Test [5] deals with T5, biotinylated FZD4 cysteine-rich domain (CRD) (Homo sapiens, UniProt Q9ULV1, biotin (in vivo biotinylation of the Avi tag)).
T5 construct: human Frizzled-4 (FZD4) cysteine-rich domain; One of 'all 10 human Frizzled CRDs'; also called FZD4 CRD; source: HEK293T constitutively expressing ER-localised biotin ligase, transfected, biotinylated in vivo; not shown: Avi3, C-terminal, kept
T5 sequence (Q9ULV1 whole entry, looked up, the tested form may be a part): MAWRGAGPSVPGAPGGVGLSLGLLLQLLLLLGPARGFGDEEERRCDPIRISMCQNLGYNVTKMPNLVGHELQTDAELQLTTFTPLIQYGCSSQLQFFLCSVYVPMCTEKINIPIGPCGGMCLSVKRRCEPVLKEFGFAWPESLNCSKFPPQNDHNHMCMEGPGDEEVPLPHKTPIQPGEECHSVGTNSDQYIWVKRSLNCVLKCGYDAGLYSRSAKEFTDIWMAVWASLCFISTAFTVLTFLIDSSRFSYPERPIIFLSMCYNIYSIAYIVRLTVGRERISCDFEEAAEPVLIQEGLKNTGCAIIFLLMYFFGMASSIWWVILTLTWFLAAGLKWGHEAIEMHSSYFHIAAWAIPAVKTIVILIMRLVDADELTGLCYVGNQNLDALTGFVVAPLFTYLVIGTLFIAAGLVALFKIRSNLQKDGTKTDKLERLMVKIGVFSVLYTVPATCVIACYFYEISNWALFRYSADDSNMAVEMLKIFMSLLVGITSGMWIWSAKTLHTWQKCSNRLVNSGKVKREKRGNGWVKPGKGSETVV
The test is described as above.

Test [6] concerns the target T6, biotinylated FZD5 cysteine-rich domain (CRD) (Homo sapiens, UniProt Q13467, biotin (in vivo biotinylation of the Avi tag)).
T6 construct: human Frizzled-5 (FZD5) cysteine-rich domain; One of 'all 10 human Frizzled CRDs'; also called FZD5 CRD; source: HEK293T constitutively expressing ER-localised biotin ligase, transfected, biotinylated in vivo; not shown: Avi3, C-terminal, kept
The test is described as above.

Test [7] has as its target T7, biotinylated FZD7 cysteine-rich domain (CRD) (Homo sapiens, UniProt O75084, biotin (in vivo biotinylation of the Avi tag)).
T7 construct: human Frizzled-7 (FZD7) cysteine-rich domain; One of 'all 10 human Frizzled CRDs'; also called FZD7 CRD; source: HEK293T constitutively expressing ER-localised biotin ligase, transfected, biotinylated in vivo; not shown: Avi3, C-terminal, kept
Described as above.

In test [8] the target is T8, biotinylated FZD8 cysteine-rich domain (CRD) (Homo sapiens, UniProt Q9H461, biotin (in vivo biotinylation of the Avi tag)).
T8 construct: human Frizzled-8 (FZD8) cysteine-rich domain; One of 'all 10 human Frizzled CRDs'; also called FZD8 CRD; source: HEK293T constitutively expressing ER-localised biotin ligase, transfected, biotinylated in vivo; not shown: Avi3, C-terminal, kept
T8 sequence (Q9H461 whole entry, looked up, the tested form may be a part): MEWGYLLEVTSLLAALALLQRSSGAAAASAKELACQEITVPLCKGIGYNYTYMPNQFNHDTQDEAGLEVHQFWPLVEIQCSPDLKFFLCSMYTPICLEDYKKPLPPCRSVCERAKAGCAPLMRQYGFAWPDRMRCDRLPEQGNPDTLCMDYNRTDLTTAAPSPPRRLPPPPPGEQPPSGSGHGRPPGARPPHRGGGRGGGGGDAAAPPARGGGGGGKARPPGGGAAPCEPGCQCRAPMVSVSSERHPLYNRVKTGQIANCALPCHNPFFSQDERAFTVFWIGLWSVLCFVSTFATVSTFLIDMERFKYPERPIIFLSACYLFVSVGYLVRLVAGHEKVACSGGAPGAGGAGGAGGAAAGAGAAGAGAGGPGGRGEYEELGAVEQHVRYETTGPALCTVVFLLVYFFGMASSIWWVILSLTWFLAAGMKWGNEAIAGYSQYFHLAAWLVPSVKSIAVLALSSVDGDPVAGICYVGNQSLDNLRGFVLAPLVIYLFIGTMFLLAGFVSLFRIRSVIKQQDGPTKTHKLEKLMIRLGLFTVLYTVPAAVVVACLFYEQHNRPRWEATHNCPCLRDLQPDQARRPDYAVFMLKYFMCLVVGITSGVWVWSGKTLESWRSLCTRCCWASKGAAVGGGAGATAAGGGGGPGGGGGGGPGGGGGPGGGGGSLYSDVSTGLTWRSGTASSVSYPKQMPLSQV
The test is described as above.

For test [9], the target named is T9, biotinylated FZD9 cysteine-rich domain (CRD) (Homo sapiens, UniProt O00144, biotin (in vivo biotinylation of the Avi tag)).
T9 construct: human Frizzled-9 (FZD9) cysteine-rich domain; One of 'all 10 human Frizzled CRDs'; also called FZD9 CRD; source: HEK293T constitutively expressing ER-localised biotin ligase, transfected, biotinylated in vivo; not shown: Avi3, C-terminal, kept
T9 sequence (O00144 whole entry, looked up, the tested form may be a part): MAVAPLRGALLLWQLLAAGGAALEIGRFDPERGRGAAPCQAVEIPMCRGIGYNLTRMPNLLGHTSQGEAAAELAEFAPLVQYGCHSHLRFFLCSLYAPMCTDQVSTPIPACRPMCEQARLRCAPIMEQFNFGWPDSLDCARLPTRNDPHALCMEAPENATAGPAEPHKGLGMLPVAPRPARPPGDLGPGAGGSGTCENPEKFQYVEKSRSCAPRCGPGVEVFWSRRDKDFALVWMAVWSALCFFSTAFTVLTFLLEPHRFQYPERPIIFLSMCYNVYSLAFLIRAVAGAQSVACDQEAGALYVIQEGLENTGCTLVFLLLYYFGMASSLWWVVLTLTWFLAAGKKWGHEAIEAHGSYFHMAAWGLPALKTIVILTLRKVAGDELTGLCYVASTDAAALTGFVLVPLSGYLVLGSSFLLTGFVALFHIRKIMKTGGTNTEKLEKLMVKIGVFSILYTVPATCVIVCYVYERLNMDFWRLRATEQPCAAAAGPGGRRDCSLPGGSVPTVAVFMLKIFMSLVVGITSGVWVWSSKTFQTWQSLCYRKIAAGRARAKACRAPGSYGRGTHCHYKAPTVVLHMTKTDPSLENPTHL
Described as above.

The target of test [10] is T10, biotinylated FZD10 cysteine-rich domain (CRD) (Homo sapiens, UniProt Q9ULW2, biotin (in vivo biotinylation of the Avi tag)).
T10 construct: human Frizzled-10 (FZD10) cysteine-rich domain; One of 'all 10 human Frizzled CRDs'; also called FZD10 CRD; source: HEK293T constitutively expressing ER-localised biotin ligase, transfected, biotinylated in vivo; not shown: Avi3, C-terminal, kept
T10 sequence (Q9ULW2 whole entry, looked up, the tested form may be a part): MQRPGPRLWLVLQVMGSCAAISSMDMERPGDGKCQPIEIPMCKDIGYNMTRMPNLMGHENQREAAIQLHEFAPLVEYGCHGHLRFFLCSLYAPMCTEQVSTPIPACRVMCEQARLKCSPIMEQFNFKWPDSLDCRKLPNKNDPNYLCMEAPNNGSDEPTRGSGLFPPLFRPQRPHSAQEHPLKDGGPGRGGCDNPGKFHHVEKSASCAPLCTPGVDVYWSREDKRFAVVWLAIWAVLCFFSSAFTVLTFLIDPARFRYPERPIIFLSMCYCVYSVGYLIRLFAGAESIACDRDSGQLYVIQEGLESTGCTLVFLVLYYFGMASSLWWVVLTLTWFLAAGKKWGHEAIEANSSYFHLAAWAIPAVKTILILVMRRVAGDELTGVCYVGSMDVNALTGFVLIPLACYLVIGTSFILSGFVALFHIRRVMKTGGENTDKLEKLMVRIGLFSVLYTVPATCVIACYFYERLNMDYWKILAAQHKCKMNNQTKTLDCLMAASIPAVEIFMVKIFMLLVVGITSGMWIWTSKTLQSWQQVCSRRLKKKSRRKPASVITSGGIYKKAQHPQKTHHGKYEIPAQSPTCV
The description is as above.

The target in test [11] is T11, biotinylated FZD3 cysteine-rich domain (CRD) (human, UniProt Q9NPG1, biotin (in vivo biotinylation of the Avi tag)).
T11 construct: human Frizzled-3 (FZD3), UniProt Q9NPG1, cysteine-rich domain; residues 26-138 are stated for the FZD3 CRD production construct, not expressly for the Avi-tagged one; The limits 26-138 are told for the Twin-Strep construct; also called FZD3 CRD; Frizzled3 CRD; source: HEK293T constitutively expressing ER-localised biotin ligase, transfected, biotinylated in vivo; not shown: Avi3, C-terminal, kept
In words: BLI; Octet Red 96e; biotinylated FZD3 or FZD6 CRD immobilised, Nb8 or Wnt5a in solution; 10 mM HEPES pH 7.5, 150 mM NaCl, 0.02% Tween 20, 0.005% GDN; 1:1 binding model.

T6 sequence (Q13467 whole entry, looked up, the tested form may be a part): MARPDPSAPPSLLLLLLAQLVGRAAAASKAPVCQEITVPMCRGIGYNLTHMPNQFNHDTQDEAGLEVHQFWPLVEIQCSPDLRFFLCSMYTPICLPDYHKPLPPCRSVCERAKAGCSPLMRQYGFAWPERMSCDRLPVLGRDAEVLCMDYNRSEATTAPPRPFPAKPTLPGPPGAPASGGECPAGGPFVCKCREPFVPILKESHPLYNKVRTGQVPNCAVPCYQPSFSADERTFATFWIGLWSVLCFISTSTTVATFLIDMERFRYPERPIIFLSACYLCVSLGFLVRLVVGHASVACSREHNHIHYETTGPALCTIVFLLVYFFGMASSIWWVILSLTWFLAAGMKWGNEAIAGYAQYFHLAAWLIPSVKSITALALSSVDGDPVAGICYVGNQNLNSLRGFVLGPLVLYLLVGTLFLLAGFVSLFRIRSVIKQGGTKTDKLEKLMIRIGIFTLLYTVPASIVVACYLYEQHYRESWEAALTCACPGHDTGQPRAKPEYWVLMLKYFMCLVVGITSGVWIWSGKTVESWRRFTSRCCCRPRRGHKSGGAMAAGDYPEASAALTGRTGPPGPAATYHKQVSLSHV
T4 sequence (Q14332 whole entry, looked up, the tested form may be a part): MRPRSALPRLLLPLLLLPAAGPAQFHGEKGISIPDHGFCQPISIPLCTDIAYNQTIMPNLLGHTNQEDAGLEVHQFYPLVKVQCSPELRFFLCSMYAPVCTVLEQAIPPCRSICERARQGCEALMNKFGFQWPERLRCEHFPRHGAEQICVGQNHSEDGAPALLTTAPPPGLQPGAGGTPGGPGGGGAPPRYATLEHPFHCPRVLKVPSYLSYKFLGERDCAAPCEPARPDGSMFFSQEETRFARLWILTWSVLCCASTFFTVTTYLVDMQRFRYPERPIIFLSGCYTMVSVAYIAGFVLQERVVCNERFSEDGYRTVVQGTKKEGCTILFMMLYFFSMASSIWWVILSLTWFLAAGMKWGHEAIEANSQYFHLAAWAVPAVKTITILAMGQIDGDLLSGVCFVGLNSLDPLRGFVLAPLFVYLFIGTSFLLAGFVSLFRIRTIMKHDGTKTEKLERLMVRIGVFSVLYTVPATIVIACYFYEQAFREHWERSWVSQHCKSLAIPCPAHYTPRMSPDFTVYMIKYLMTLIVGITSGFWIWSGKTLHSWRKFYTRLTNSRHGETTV
T3 sequence (Q9UP38 whole entry, looked up, the tested form may be a part): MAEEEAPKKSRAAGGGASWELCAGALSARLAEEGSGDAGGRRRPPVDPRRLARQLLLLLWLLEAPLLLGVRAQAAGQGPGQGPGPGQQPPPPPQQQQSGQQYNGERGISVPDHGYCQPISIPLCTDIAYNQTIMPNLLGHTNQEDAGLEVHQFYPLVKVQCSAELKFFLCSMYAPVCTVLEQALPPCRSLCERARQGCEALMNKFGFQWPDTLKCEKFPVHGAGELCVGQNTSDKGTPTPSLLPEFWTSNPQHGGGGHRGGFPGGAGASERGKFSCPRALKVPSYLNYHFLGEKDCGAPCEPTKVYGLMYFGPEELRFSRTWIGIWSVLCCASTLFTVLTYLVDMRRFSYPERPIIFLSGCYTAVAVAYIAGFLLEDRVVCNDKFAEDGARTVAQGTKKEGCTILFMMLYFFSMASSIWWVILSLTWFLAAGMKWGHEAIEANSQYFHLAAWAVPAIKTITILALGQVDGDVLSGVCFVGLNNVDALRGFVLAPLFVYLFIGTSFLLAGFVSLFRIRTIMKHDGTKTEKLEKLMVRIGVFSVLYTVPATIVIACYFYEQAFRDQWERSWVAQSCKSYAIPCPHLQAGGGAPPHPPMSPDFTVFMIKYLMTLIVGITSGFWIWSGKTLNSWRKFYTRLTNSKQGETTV

B1: Nb1 (VHH)
VHH: QVQLVESGGGLVQAGGSLRLSCAASGNIFSINAMGWYRQAAGKQRELVAAITSGGSTNYADSVKGRFTISRDNAKNTVYLQMNSLKPEDTAVYYCNADEWALGEHWGQGTQVTVSS
notes: also called nanobody 1; family 1 (Nb1, 3-6)
Turning to B1, in test [1], the binding result is recorded as “binds”.

B2: Nb9 (VHH)
VHH: QVQLVESGGGLVQAGGSLRLSCTASGRIFNLDVMGWYRQAPGKRRELVADITSGGKINYADSVKGRFTISRDNTKDTVYLQMNSLKPEDTAVYYCNAEVEWLDMDYWGKGTQVTVSS
notes: most of the chain also in PDB 8QW4 (as the megabody); also called nanobody 9; family 3
B2: the dissociation constant (Kd) came to 32 ± 2.8 nM in [1] and 410 ± 41 nM in test [2].

B3: Nb8 (VHH)
VHH: QVQLVESGGGLVQAGGSLRLSCAASGSISSINAMGWYRQAPGKQRELVAAITSGGSTNYADSVKGRFTISRDNAKNTVYLQMNSLKPGDTAVYYCNLLYYIDYVEYDYWGQGTQVTVSS
notes: also in PDB 8Q7O; residues 1-119 are named for the Nb8 module of the surrogate; Untagged in the crystallisation sample; also called nanobody 8; family 2; source: co-expressed untagged with FZD3 CRD in HEK293S GnTI- cells (for crystallisation)
For the molecule B3, the binding result in test [3], in [4], in [5], in test [6], in [7] and in [8] was “no binding” in each case. The binding result in [9] and in test [10] was “no binding” each time. The Kd in test [11] amounted to 19.2 ± 1.2 nM.

In general, Kd refers to a measure of binding affinity in units of concentration. A lower Kd goes with tighter binding.
